Target: Netrin-1-FlagM2 (recombinant netrin-1, Apotech)
Assay: ELISA: DCC-5Fbn 100 ng coated, netrin-1 0 to 800 ng, IL3-R values subtracted

- Kd: 5 nM
Substance: DCC-5Fbn (recombinant soluble fifth fibronectin type III domain of DCC) (from UniProt P43146 846-942) (receptor)

Reference: patent US20090226458A1
